The labels stand for the following.
T1: Peptide 4: Biotin-AGGGGSGGGGSGGGGSAAA-Tyr-acid (N-terminal biotin; C-terminal acid; no PC)
T1 construct: control peptide without PC
T1 peptide: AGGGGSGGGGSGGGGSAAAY

T2: Peptide 8: Biotin-AEAAAKEAAAKEAAAKEAAAKAAA-Tyr-acid (N-terminal biotin; C-terminal acid; no PC)
T2 construct: control peptide without PC
T2 peptide: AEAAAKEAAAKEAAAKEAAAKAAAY

B1: PcOxP_DB01_E07 (scFv, V domains shown)
VH: EVQLLESGGGLVQPGGSLRLSCAASGFTFSSYYMEWVRQAPGKGLEWVAASRNKANDYTTEYADSVKGRFTISRDNSKNTLYLQMNSLRAEDTAVYYCARDYYGSSYWYFDVWGQGTLVTVSS
VL: DIVMTQSPDSLAVSLGERATINCTASESLYSSKHKVDYLAWYQQKPGQPPKLLIYGASNRYIGVPDRFSGSGSGTDFTLTISSLQAEDVAVYYCAQFYSYPLTFGGGTKVEIK
notes: scFv in periplasmic extract
B2: PcOxP_DB01_G10 (scFv, V domains shown)
VH: B1 VH with S31D, Y32F, A55N
VL: B1 VL with T24K, E27Q, V36K, D37H, I62P, S99R
notes: scFv in periplasmic extract
B3: PcOxP_DB02_A04 (scFv, V domains shown)
VH: B1 VH with F27D, S31D, Y32F, A55W
VL: B1 VL with D37H
notes: scFv in periplasmic extract
B4: PcOxP_DB01_F06 (scFv, V domains shown)
VH: B1 VH with F27D, S31D, Y32F
VL: B1 VL with T24K, A25S, E27Q, S31Y, K33S, H34N, V36K, D37N, I62G, S99R
notes: scFv in periplasmic extract
B5: PcOxP_DB01_F03 (scFv, V domains shown)
VH: B1 VH with S31D, Y32S, A55Y
VL: B1 VL with D37H
notes: scFv in periplasmic extract
B6: PcOxP_DB01_H06 (scFv, V domains shown)
VH: B1 VH with S31D, Y32F, A55G, D57S, E61A
VL: B1 VL with D37H, I62D, Q96N
notes: scFv in periplasmic extract
B7: PcOxP_DB01_H02 (scFv, V domains shown)
VH: B1 VH
VL: B1 VL with E27S, D37H
notes: scFv in periplasmic extract
B8: PcOxP_DB01_E09 (scFv, V domains shown)
VH: B1 VH with F27N, S31D, Y32F
VL: B1 VL with D37H, Q96N
notes: scFv in periplasmic extract
B9: PcOxP_DB01_F07 (scFv, V domains shown)
VH: B1 VH with F27D, S31D, Y32F, M34L, D57G, G104H
VL: B1 VL with D37H, Q96H
notes: scFv in periplasmic extract
B10: PcOxP_DB01_G07 (scFv, V domains shown)
VH: B1 VH with S31D, A55Y
VL: B1 VL with S31G, D37H
notes: scFv in periplasmic extract
B11: PcOxP_DB01_G02 (scFv, V domains shown)
VH: B1 VH with T28L, S31D, Y32F, E61T, S106H
VL: B1 VL with D37H, Y61E, S99F
notes: scFv in periplasmic extract
B12: PcOxP_DB01_E08 (scFv, V domains shown)
VH: B1 VH with F27D, S31D, Y32F, D57A, S105Q
VL: B1 VL with D37H
notes: scFv in periplasmic extract
B13: PcOxP_DB02_B04 (scFv, V domains shown)
VH: B1 VH with S31D, A55W
VL: B1 VL with D37H
notes: scFv in periplasmic extract
B14: PcOxP_DB01_G04 (scFv, V domains shown)
VH: B1 VH with S31D, Y32G
VL: B1 VL with D37H, I62S
notes: scFv in periplasmic extract
B15: PcOxP_DB01_F11 (scFv, V domains shown)
VH: B1 VH with F110Y
VL: B1 VL with D37H
notes: scFv in periplasmic extract
B16: PcOxP_DB01_F12 (scFv, V domains shown)
VH: B1 VH with F29H, S31D, Y32F, D57G, V112S
VL: B1 VL with D37H, I62V
notes: scFv in periplasmic extract
B17: PcOxP_DB01_H01 (scFv, V domains shown)
VH: B1 VH with D57L, Y107T
VL: B1 VL with D37H
notes: scFv in periplasmic extract
B18: PcOxP_DB01_H03 (scFv, V domains shown)
VH: B1 VH with S31D, Y32H, N53G, A55G, D57S, E61A
VL: B1 VL with D37H, S58G, S99H
notes: scFv in periplasmic extract
B19: PcOxP_DB01_G03 (scFv, V domains shown)
VH: B1 VH with S31D, Y32G
VL: B1 VL with E27T, D37H, S99T
notes: scFv in periplasmic extract
B20: PcOxP_DB01_F08 (scFv, V domains shown)
VH: B1 VH with S31D, Y32G, A55W
VL: B1 VL with D37H, I62S
notes: scFv in periplasmic extract
B21: PcOxP_DB01_G05 (scFv, V domains shown)
VH: B1 VH with D57E
VL: B1 VL with D37H, Q96N
notes: scFv in periplasmic extract
B22: PcOxP_DB02_A05 (scFv, V domains shown)
VH: B1 VH with F29G, S31D, Y32F, A55W
VL: B1 VL with D37H, S58G
notes: scFv in periplasmic extract
B23: PcOxP_DB01_G06 (scFv, V domains shown)
VH: B1 VH with S31D, A55W
VL: B1 VL with D37H, I62S
notes: scFv in periplasmic extract
B24: PcOxP_DB01_F01 (scFv, V domains shown)
VH: B1 VH with T28P, S31D, Y32F, S106P
VL: B1 VL with L29V, H34N, V36K, D37H, S99T
notes: scFv in periplasmic extract

Changes are numbered by the printed parent chain.

The first assay deals with BSA (UniProt P02769). In words: scFv ELISA.
BSA, sequence (P02769 25-607 limits assumed): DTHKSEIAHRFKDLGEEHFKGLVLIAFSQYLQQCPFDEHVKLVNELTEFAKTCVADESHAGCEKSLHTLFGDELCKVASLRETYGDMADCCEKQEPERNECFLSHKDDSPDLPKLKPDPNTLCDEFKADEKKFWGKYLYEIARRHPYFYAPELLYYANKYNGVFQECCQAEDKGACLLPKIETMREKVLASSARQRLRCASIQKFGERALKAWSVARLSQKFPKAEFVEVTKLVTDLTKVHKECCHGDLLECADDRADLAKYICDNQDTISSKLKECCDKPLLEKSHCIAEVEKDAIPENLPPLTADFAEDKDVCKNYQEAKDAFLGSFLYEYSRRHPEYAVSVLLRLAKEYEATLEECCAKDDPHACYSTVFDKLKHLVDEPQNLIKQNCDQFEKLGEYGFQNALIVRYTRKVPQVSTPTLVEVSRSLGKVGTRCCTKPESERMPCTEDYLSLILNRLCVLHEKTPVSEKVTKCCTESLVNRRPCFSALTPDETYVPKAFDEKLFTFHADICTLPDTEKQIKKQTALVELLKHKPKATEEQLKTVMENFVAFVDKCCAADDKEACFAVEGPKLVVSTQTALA
For B1, the OD450 came out at 0.07 OD450.
B2 showed an OD450 of 0.1 OD450.
The same measure, in the same setting: as for B3, the figure is 0.09 OD450; as for B4, 0.07 OD450.
On to B5, for which the OD450 is 0.08 OD450.
In turn, B6 came in with an OD450 of 0.11 OD450.
In the case of B7, the OD450 is 0.1 OD450.
Same read-out and setting: in the case of B8 it was 0.06 OD450; in that of B9, 0.06 OD450; in that of B10, 0.07 OD450.
Same read-out and setting: in the case of B11 it was 0.06 OD450; in that of B12, 0.06 OD450.
The same measure, in the same setting: as for B13, the figure is 0.08 OD450; as for B14, 0.07 OD450; as for B15, 0.07 OD450.
On to B16, for which the OD450 is 0.06 OD450.
Same read-out and setting: in the case of B17 it was 0.09 OD450; in that of B18, 0.1 OD450; in that of B19, 0.07 OD450.
Still for that read-out and setting: as for B20, the figure is 0.06 OD450; as for B21, 0.08 OD450; as for B22, 0.07 OD450.
In turn, B23 displayed an OD450 of 0.06 OD450.
The same measure, in the same setting: as for B24, the figure is 0.08 OD450.

For a further assay, the target named is Peptide 1: Biotin-…-[Tyr(PC)]-acid. In words: scFv ELISA. A general note: An ELISA detects its analyte on a solid surface through an enzyme-linked reagent.
In turn, B1 showed an OD450 of 0.87 OD450.
Regarding B2, the OD450 is 0.71 OD450.
The same measure, in the same setting: as for B3, the figure is 0.33 OD450; as for B4, 0.12 OD450; as for B5, 0.8 OD450.
On the same count and under the same terms, in the case of B6 it was 0.96 OD450; in that of B7, 0.74 OD450.
On the same count and under the same terms, as for B8, the figure is 0.77 OD450; as for B9, 0.31 OD450; as for B10, 0.46 OD450.
With B11, the OD450 is 0.82 OD450.
The same measure, in the same setting: in the case of B12 it was 0.47 OD450; in that of B13, 0.75 OD450; in that of B14, 0.56 OD450.
B15 showed an OD450 of 1.55 OD450.
Still for that read-out and setting: in the case of B16 it was 0.76 OD450; in that of B17, 0.82 OD450.
The same measure, in the same setting: in the case of B18 it was 0.46 OD450; in that of B19, 0.43 OD450; in that of B20, 0.52 OD450.
On the same count and under the same terms, in the case of B21 it was 0.69 OD450; in that of B22, 0.99 OD450.
Turning to B23, the OD450 is 0.73 OD450.
Turning to B24, the OD450 amounted to 0.6 OD450.

In a further assay the target is Peptide 5: Biotin-…-[Tyr(PC)]-acid. In words: scFv ELISA.
Turning to B1, the OD450 was 1.51 OD450.
Molecule B2 had an OD450 of 1.52 OD450.
Turning to B3, the OD450 was found to be 0.82 OD450.
Same read-out and setting: as for B4, the figure is 0.53 OD450; as for B5, 1.41 OD450; as for B6, 1.79 OD450.
Same read-out and setting: in the case of B7 it was 1.1 OD450; in that of B8, 1.26 OD450.
On the same count and under the same terms, in the case of B9 it was 0.81 OD450; in that of B10, 1.2 OD450; in that of B11, 1.2 OD450.
The molecule B12 displayed an OD450 of 0.82 OD450.
Same read-out and setting: in the case of B13 it was 1.32 OD450; in that of B14, 1.01 OD450.
Still for that read-out and setting: as for B15, the figure is 1.92 OD450; as for B16, 1.43 OD450.
On the same count and under the same terms, as for B17, the figure is 1.23 OD450; as for B18, 1.29 OD450; as for B19, 0.94 OD450.
B20 returned an OD450 of 1.22 OD450.
Same read-out and setting: as for B21, the figure is 1.24 OD450; as for B22, 1.24 OD450; as for B23, 1.32 OD450.
B24 registered an OD450 of 1.78 OD450.

The next assay has as its target T1, Peptide 4: …. Description: scFv ELISA. The essentials: (§1)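 Bound scFv was read as OD450 after HRP–anti-V5 detection, TMB development and HCl stop. PPE with BSA was incubated 1 h at RT on BSA-blocked wells coated overnight at 4° C. with peptide, or on streptavidin wells loaded 1 h with biotinylated PC-peptides at 1 μg/mL.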
As to B1, the OD450 turned out to be 0.05 OD450.
Same read-out and setting: as for B2, the figure is 0.05 OD450; as for B3, 0.04 OD450.
Same read-out and setting: in the case of B4 it was 0.04 OD450; in that of B5, 0.07 OD450; in that of B6, 0.05 OD450.
Same read-out and setting: in the case of B7 it was 0.07 OD450; in that of B8, 0.04 OD450.
B9 had an OD450 of 0.04 OD450.
The same measure, in the same setting: in the case of B10 it was 0.05 OD450.
Same read-out and setting: as for B11, the figure is 0.05 OD450; as for B12, 0.05 OD450; as for B13, 0.05 OD450.
Same read-out and setting: in the case of B14 it was 0.05 OD450; in that of B15, 0.07 OD450; in that of B16, 0.05 OD450.
B17: the OD450 came to 0.07 OD450.
On the same count and under the same terms, in the case of B18 it was 0.07 OD450.
The same measure, in the same setting: in the case of B19 it was 0.05 OD450; in that of B20, 0.04 OD450.
Still for that read-out and setting: in the case of B21 it was 0.05 OD450; in that of B22, 0.05 OD450; in that of B23, 0.05 OD450.
Take B24: the OD450 was 0.05 OD450.

A further assay has as its target T2, Peptide 8: …. Description: scFv ELISA. The essentials:
as §1
With B1, the OD450 worked out at 0.05 OD450.
The same measure, in the same setting: in the case of B2 it was 0.05 OD450; in that of B3, 0.04 OD450; in that of B4, 0.04 OD450.
B5 came in with an OD450 of 0.08 OD450.
On the same count and under the same terms, as for B6, the figure is 0.07 OD450.
For the molecule B7, the OD450 is 0.06 OD450.
Take B8: the OD450 was 0.04 OD450.
The same measure, in the same setting: in the case of B9 it was 0.04 OD450.
Regarding B10, the OD450 was determined as 0.04 OD450.
Same read-out and setting: in the case of B11 it was 0.04 OD450; in that of B12, 0.04 OD450; in that of B13, 0.04 OD450.
B14: the OD450 stood at 0.07 OD450.
On the same count and under the same terms, in the case of B15 it was 0.05 OD450.
Same read-out and setting: in the case of B16 it was 0.05 OD450; in that of B17, 0.06 OD450; in that of B18, 0.06 OD450.
On the same count and under the same terms, as for B19, the figure is 0.05 OD450; as for B20, 0.04 OD450; as for B21, 0.05 OD450.
B22 gave an OD450 of 0.04 OD450.
The same measure, in the same setting: as for B23, the figure is 0.04 OD450; as for B24, 0.05 OD450.

Source of the values: patent US20250320312A1 (OXITOPE PHARMA B V, published 2025).
